This is an account of results in article PMC5779702, “The glutamine synthetase of Trypanosoma cruzi is required for its resistance to ammonium accumulation and evasion of the parasitophorous vacuole during host-cell infection” (PLoS Neglected Tropical Diseases, 2018).

The target of series [1] is recombinant Trypanosoma cruzi glutamine synthetase (TcGS), His6-tagged (Trypanosoma cruzi). The series can be described thus: SEC; analytical size-exclusion chromatography of recombinant TcGS (elutions of the Ni-NTA column); mass estimated from a calibration of the column; TcGS followed in the fractions by Bradford, dot-blot, ELISA and GS activity.
Series [2] addresses T1, glutamine synthetase (TcGS) (Trypanosoma cruzi, UniProt Q4CN04).
T1 construct: gene Tc00.1047053503405.10; recombinant His6-tagged TcGS (TcCLB.503405.10 starting at base pair 123), expressed in E. coli
The series is described as follows: enzyme inhibition kinetics of purified recombinant TcGS. The series is classed as biochemical.

The subject of series [3] is Nc1ncnc2c1ncn2[C@@H]1O[C@H](COP(=O)(O)OP(=O)(O)OP(=O)(O)O)[C@@H](O)[C@H]1O. The series can be described thus: purified protein. The note with it: Mg2+.
In series [4] the test system is N[C@@H](CCC(=O)O)C(=O)O. The series can be described thus: purified protein. The note with it: Mg2+.

Consider “recombinant Trypanosoma cruzi glutamine synthetase (TcGS), His6-tagged (enzyme)”, for which, in series [1], the stoichiometry N is 8.

On to `CS(=N)(=O)CCC(N)C(=O)O` (centres unmarked) [MS, Methionine sulfoximine], for which, in series [2], the Ki was 3.89 ± 0.04 µM.

In the case of “glutamine synthetase (TcGS) (Trypanosoma cruzi strain CL Brener)”, in series [3], the Km turned out to be 380 ± 100 µM, the kcat is 396 ± 18.2 s⁻¹ and the kcat/Km turned out to be 1.05e+06 M⁻¹ s⁻¹. For the same molecule, in series [4], the Michaelis constant (Km) was determined as 440 ± 60 µM, the kcat is 392 ± 9.5 s⁻¹ and the kcat/Km is 890000 M⁻¹ s⁻¹.
